Consider 13 proteins from patent US20250051821.

Residue numbers refer to the chain shown, from its start.

To fix the notation:
T1: IFF05588
T1 chain: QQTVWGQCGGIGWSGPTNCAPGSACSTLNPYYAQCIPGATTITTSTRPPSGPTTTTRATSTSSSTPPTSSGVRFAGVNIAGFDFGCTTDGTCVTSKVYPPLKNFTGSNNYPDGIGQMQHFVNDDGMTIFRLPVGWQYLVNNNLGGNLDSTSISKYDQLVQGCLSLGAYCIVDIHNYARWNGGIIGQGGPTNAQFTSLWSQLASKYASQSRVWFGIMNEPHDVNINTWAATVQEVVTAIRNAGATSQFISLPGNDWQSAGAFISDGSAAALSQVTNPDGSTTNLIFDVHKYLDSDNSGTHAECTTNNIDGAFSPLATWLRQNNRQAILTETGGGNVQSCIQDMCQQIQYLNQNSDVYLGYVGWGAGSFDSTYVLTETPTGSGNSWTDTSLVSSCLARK

B1: IFF21332 (protein)
chain: ALNKPIINPQFPNGGLGSLGPGLMQHLQPAKRTWDKWGPGWIPEDCKNLAKSNNFSPFDITPFNIHYEDCPDSWVFCRHKDSPLSETAMIDMFGRMPVKMRSYIRHIIALPGTRSAGSAGDNIQMNGDCEITVFVHETGHSLDSHAFDPKYGAPFSNSKVWLDNYNQDSAVCDGYAQSSQQENLAQETVVGLFDKVVPGGVGTIQPNWKAIFHQYATVQGYLGDQILPGGTCSHRLTNSKPVPMGDSKKSRRGLGPAPDVSLSAHVTEIEPIAMGDSIVLTQYNDGGDAISKREVTLN
B2: IFF21333 (protein)
chain: RLDKPIINPTFPGGGLDSLAQGLLDHLAPTQSTHDNWGAGYIPEDCKNLAKSNGFSPFDITPFNIHYSDCNDVWIFCRHKDSPLSQIDMIDLFGRMPVHMREYIRHVIALPGNKSAGSSGDNIQMNGAVGITVFVHETGHSLDSHGFDPKYGVPFSNSKTWLDNYNMDTAVCDSYAQSSQQENLAQETVVGLYDKVVPGGVGNIQPNWKAIFHQYATVQGYLGDILTPGGTCRHRLANSKPVPMGDSAKFRRDLGPAPDVSLSSDVIEIESIPMGSSIRITEFDEAGNPIGSKNVSLVM
B3: IFF21348 (protein)
chain: TLNKPVIQPNFPGGGLASLGPGLLNNLAITSSTSDVWGAGWIPADCKSLVQGAGLSPFDVIPFNIHLSDCSQTWTFCRHKNSPLSQTDIINLFARVPVRMRDFIRHFVFIPGATSAGSNGDNTLMVGNVDITVFLHEIGHSLDSHAFDPSYGVPFSTGNVWVSNYNLDSAVTDSYAQTSQQENFAQETVVSVYDKVVPGGIGTIQPNWQAIFHQYATLEGYIGNTIIPGGTCVNRLTDSQPVPMGNSAKFRRTMGPKPTVSLSPDVKEIKAIPMSDSITMTSFDEFGNVNGTYVIQL
B4: IFF21360 (protein)
chain: RLDKPVIKPPFPNGGGLGSLGPDLMSSLPIAAHTTSDWDSDHLPRDCKRLAQSAGFSPLDVDAFNIRFDDCKQQPWVFCRHKDAPLSKSNMTELFGRLPVRMRQYIRHIIALPGQRSAGSAGDNIQMNGDCEITVFIHETGHSLDSHAFDPKHGVPFSNSPVWKDAYDKDTAVTDDYAQTSQQENFAQETVVAVYDKNVKGGGIGKIQPNAQAIRNAYTTLEKYIGDIIIPGGECTHRLENSPAVPKVDSARTRLVAKSEPVGEGLTRIEPIPMGPITLARY
B5: IFF21354 (protein)
chain: RLDKPVIKPPFPNGGLGSLGPDLMSSLKVASHTTDDWDKNHLPRDCKSLAQNAGFSPLDVSAFNIHYDDCKSQPWVFCRHKDSPLSKKDMTELFGRMPVRMRQFIRHIIALPGQRSAGSSGDNIQMNGDVEITVFIHETGHSLDSHAFDPKLGAPFSNGKAWTDAYNKDSAVTDDYAQTSQQENFAQETVVSVYDKNVKGGIGKIQPNAQAIRNAYTTLEKYIGNIIIPGGVCTHRLENSPSVPKADSARTRLVPKSEPVGEGLTRIEPIAMGPITPASY
B6: IFF21351 (protein)
chain: ALNKPVIQPNFPGNGLASLGQGIMQHLTPTQSTWDDWGAGWIPQDCKSIVQGAGFSPNDIIPFNIHYTDCGQTWTFCRHKNSPLSEINIIDIFGRLPVRMRQFVRHLVFVPGNKSAGSNGDNILMVGPVDVTVFIHEIGHSLDSHAFDPSYGVPFSTGNVWVSNYNLDSAVPDPYAQSSQQENFAQHTVVSIFDKVVPGGIGTIQPNWQAIFHQYATLEGYIGDTIIPGGTCTHRLTDSPPVTMASKRRGLGPKPKVALSPEVEEIESIPMKSTFKMTSFDEAGKPSGNYVINL
B7: IFF21350 (protein)
chain: NLNKPVIQPNFPGNGLASLGQGILDHLAPTQSTWDDWGAGWIPQDCKSLAQGAGLSPNDIIPFNIHYADCAQTWTFCRHKNSPLSEVNIIDLFGRLPVRMRQFVRHLVFIPGNKSAGSNGDNVLMVGPVDITVFAHEIGHSLDSHAFDPSYGVPFSTGNVWVSNYNLDSAVPDPYAQSSQQENFAQHTVISIYDKAVPGGIGTIQPNWQAIFHQYATLEGYIGDIIIPGGTCTHRLTDSPPVTMASKRRALGPKPKVALSPEVEEIEAIPMKNTITMTSFDEAGKPNGSYVINL
B8: IFF21379 (protein)
chain: QLDKPALTSNLDYLLEGNTNNLPRNGGPYWGKWADGLMPADCKSIAESQGLNPTDFEVWDIFYNDCQDGWSFCRHKDSSDSFETLVETFGRVPVRMRSWVRHILTIPGPNWAFNSNGNIALSGTTSSNLDVALHETAHSLDLLGAYGNGALSSMQEWLNAYNRDSHVPDEYARSNQVENVAQNTVVAIYDKVVPGGFPGIQPNYQRIQNQYTLVQAKAGNQILPGGTCDRHLENSDTVPMSGLSLAYKLDSEKSRGVWHDSAFKGTYMNIVKEFTPFNTQEFHH
B9: IFF21342 (protein)
chain: NLNKPVITPNFPGNGLASLGQGLMDHLAPTHSTWDDWGAGWIPADCKSMVQGAGFSPNDIIPFNIHYDDCAQSWTFCRHKNSPLSEIQILDIFGRLPVRMRQFVRHLVFVPGNKSAGSNGDNVLMVGDVDVTVFAHEIGHSLDSHAFDPSYGVPFSTGNVWVSNYNLDSAVPDPYAQSSQQENFAQETVVSLYDKVVPGGIGTIQPNWQAIFHQYATLEGYIGNVIIPGGTCTHRLTDSPPVTMSGSKKSRRALGPKPKVSLSPKVKEIEAIPMESSITMTSFDEHGRPNGTYVINL
B10: IFF21341 (protein)
chain: B9 chain with Q21P, D25N, H26N, A44S, P240A, R288K, I295V, N296H
B11: IFF21334 (protein)
chain: ILDKPVIQPNFPGNGLASLGQGLMDNLSPTHSTWDDWGAGWIPQDCKSLVEGAGFSASDVIPFNIHYDDCAQTWTFCRHKDSPLSEITILDIFGRLPVRMRSFVRHLVFIPGNKSAGSSGDNVLMVGAVDVTVFAHEIGHSLDSHAFDPSYGVPFSTGNVWISNYNLDSAVTDPYAQTSQQENFAQETVVSLYDKVVPGGIGTIQPNWQAIYHQYATLEGYIGDVIIPGGTCTHRLTDSPPVQMSSSSKLRRALGPKPHVALSPEVEEIEAIPMKSSITMTSFDAAGKPNGTYVINL
B12: IFF21359 (protein)
chain: TLDKPVIKPPFPNGGLGSLGPDLMSSLPIAAHTTTDWDADHLPRDCKTLAQGAGFSPLDVSAFDIHYDDCKAQPWVFCRHKDSPLSKTDMTELFGRLPVRMRQFIRHIIALPGQRSAGSAGDNIQMNGDCEITVFIHETGHSLDSHAFDPKLGVPFSNGKAWTDAYHKDTAVTDDYGRTSQQENFAQETVVSVYDKNVEGGIGKIQPNAQAIRNAYTTLETYIGNIIIPGGECTHRLENSPSVPKADSARTRLVARAEPVGEGLTRIEPVPFGPILSVRY
B13: IFF21343 (protein)
chain: NLDKPVIQPNFPGNGLASLGQGLMDHLAPTHSTWDDWGAGWIPQDCKSMAQGAGFSANDIIPFNIHYDDCAQSWTFCRHKNSPLSELQILDIFGRLPVRMRSFVRHLVFVPGNKSAGSNGDNVLMVGAVDVTVFAHEIGHSLDSHAFDPSYGVPFSTGSVWTSNYNLDSAVPDPYAQTSQQENFAQETVVSLYDKVVPGGIGTIQPNWKAIFHQYATLQGYIGNVIIPGGTCTHRLTDSPPVTMSSAKLRRGLGPKPNVSLSPKVKEIESIPMESSITMTSFDEHGKPNGTYVVHLK

For the data set, the target named is T1, IFF05588.
Consider B1, for which the Relative late peak area (centered, scaled, averaged over 5, 10 and 15 min) was 0.3; the Relative late peak area (centered, scaled, averaged over doses, 24 h; sample diluted 2-fold) was determined as 0.8; the Relative late peak area (reverse phase chromatography, 24 h) worked out at 0.65.
Take B2: the Relative late peak area (centered, scaled, averaged over 5, 10 and 15 min) came out at 0.26; the Relative late peak area (centered, scaled, averaged over doses, 24 h; sample diluted 2-fold) was determined as 0.69; the Relative late peak area (reverse phase chromatography, 24 h) came out at 0.59.
For B3, the Relative late peak area (centered, scaled, averaged over 5, 10 and 15 min) was determined as 1.4; the Relative late peak area (centered, scaled, averaged over doses, 24 h; sample diluted 10-fold) stood at 0.68.
In the case of B4, the Relative late peak area (centered, scaled, averaged over 5, 10 and 15 min) is -0.58; the Relative late peak area (centered, scaled, averaged over doses, 24 h; sample diluted 1-fold) stood at 0.62; the Relative late peak area (reverse phase chromatography, 24 h) was found to be 0.66.
B5: the Relative late peak area (centered, scaled, averaged over 5, 10 and 15 min) stood at 1.34; the Relative late peak area (centered, scaled, averaged over doses, 24 h; sample diluted 10-fold) was 0.87; the Relative late peak area (reverse phase chromatography, 24 h) amounted to 0.67.
Turning to B6, the Relative late peak area (centered, scaled, averaged over 5, 10 and 15 min) was -0.57; the Relative late peak area (centered, scaled, averaged over doses, 24 h; sample diluted 1-fold) turned out to be 0.66.
For B7, the Relative late peak area (centered, scaled, averaged over 5, 10 and 15 min) is 1.55; the Relative late peak area (centered, scaled, averaged over doses, 24 h; sample diluted 10-fold) is 1.06; the Relative late peak area (reverse phase chromatography, 24 h) amounted to 0.61.
Regarding B8, the Relative late peak area (centered, scaled, averaged over 5, 10 and 15 min) is -0.02; the Relative late peak area (centered, scaled, averaged over doses, 24 h; sample diluted 2-fold) worked out at 0.75; the Relative late peak area (reverse phase chromatography, 24 h) is 0.45.
On to B9, for which the Relative late peak area (centered, scaled, averaged over 5, 10 and 15 min) turned out to be 0.12; the Relative late peak area (centered, scaled, averaged over doses, 24 h; sample diluted 2-fold) came to 0.73.
Turning to B10, the Relative late peak area (centered, scaled, averaged over 5, 10 and 15 min) stood at 1.03; the Relative late peak area (centered, scaled, averaged over doses, 24 h; sample diluted 10-fold) was 0.62.
Take B11: the Relative late peak area (centered, scaled, averaged over 5, 10 and 15 min) came out at 1.38; the Relative late peak area (centered, scaled, averaged over doses, 24 h; sample diluted 10-fold) was 0.97; the Relative late peak area (reverse phase chromatography, 24 h) amounted to 0.65.
On the same counts, the results for B12 are 1.3, 0.61 and 0.68.
As for B13, the Relative late peak area (centered, scaled, averaged over 5, 10 and 15 min) came out at 0.33; the Relative late peak area (centered, scaled, averaged over doses, 24 h; sample diluted 2-fold) is 0.8.
